Assays:
cof1_rat Cfl1 [1] = biological target: cof1_rat Cfl1 (UniProt P45592)
cofa_dicdi cofA = cofa_dicdi cofA (UniProt P0DJ26)
cof1_rat Cfl1 [2] = biological target: cof1_rat Cfl1 (UniProt P45592); remark: listed apart in the source

Src substrate cortactin (Mus musculus), Q60598 Y421F;Y466F;Y482F, sequence (Q60598 whole entry Y421F/Y466F/Y482F): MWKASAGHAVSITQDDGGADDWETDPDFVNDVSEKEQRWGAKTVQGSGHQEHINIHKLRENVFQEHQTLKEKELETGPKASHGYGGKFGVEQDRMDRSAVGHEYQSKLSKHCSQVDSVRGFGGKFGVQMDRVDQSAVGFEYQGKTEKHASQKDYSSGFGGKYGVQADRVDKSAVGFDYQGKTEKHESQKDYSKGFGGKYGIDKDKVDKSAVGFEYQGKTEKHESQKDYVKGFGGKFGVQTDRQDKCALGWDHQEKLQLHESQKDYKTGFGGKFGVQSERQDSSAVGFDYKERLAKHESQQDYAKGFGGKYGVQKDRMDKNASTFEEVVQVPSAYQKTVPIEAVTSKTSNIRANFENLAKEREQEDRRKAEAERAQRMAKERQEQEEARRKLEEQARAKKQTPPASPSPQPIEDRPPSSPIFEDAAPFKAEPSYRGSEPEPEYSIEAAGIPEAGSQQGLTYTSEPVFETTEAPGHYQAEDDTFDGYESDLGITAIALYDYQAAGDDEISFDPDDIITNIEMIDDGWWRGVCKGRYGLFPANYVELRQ
cof1_rat Cfl1, sequence (P45592 whole entry): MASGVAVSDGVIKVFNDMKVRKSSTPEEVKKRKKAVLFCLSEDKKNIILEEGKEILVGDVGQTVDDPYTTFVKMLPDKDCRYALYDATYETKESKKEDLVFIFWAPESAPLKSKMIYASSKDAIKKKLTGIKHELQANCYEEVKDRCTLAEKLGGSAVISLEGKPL
Src substrate cortactin (Mus musculus), Q60598 Y421E;Y466E;Y482E, sequence (Q60598 whole entry Y421E/Y466E/Y482E): as the sequence (Q60598 whole entry Y421F/Y466F/Y482F) above, with F421E, F466E, F482E counted along it
cofa_dicdi cofA, sequence (P0DJ26 whole entry): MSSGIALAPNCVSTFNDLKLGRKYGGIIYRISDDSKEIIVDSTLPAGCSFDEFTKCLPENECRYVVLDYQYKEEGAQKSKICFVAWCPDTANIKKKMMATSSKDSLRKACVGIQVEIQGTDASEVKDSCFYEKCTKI

effect of a mutation on the interaction (cof1_rat Cfl1 [1])	effect of a mutation on the interaction (cofa_dicdi cofA)	effect of a mutation on the interaction (cof1_rat Cfl1 [2])	Substance
decreasing interaction	–	–	Src substrate cortactin (Mus musculus), Q60598 Y421E;Y466E;Y482E
–	increasing interaction	increasing interaction	Src substrate cortactin (Mus musculus), Q60598 Y421F;Y466F;Y482F

— IntAct's records for PubMed 19704022
